B1: Spastin (Homo sapiens), Q9UBP0-1 (parent)
chain: MNSPGGRGKKKGSGGASNPVPPRPPPPCLAPAPPAAGPAPPPESPHKRNLYYFSYPLFVGFALLRLVAFHLGLLFVWLCQRFSRALMAAKRSSGAAPAPASASAPAPVPGGEAERVRVFHKQAFEYISIALRIDEDEKAGQKEQAVEWYKKGIEELEKGIAVIVTGQGEQCERARRLQAKMMTNLVMAKDRLQLLEKMQPVLPFSKSQTDVYNDSTNLACRNGHLQSESGAVPKRKDPLTHTSNSLPRSKTVMKTGSAGLSGHHRAPSYSGLSMVSGVKQGSGPAPTTHKGTPKTNRTNKPSTPTTATRKKKDLKNFRNVDSNLANLIMNEIVDNGTAVKFDDIAGQDLAKQALQEIVILPSLRPELFTGLRAPARGLLLFGPPGNGKTMLAKAVAAESNATFFNISAASLTSKYVGEGEKLVRALFAVARELQPSIIFIDEVDSLLCERREGEHDASRRLKTEFLIEFDGVQSAGDDRVLVMGATNRPQELDEAVLRRFIKRVYVSLPNEETRLLLLKNLLCKQGSPLTQKELAQLARMTDGYSGSDLTALAKDAALGPIRELKPEQVKNMSASEMRNIRLSDFTESLKKIKRSVSPQTLEAYIRWNKDFGDTTV

In this assay the parent is B1. The note with it: with fxl17_human FBXL17, Q9UF56.
fxl17_human FBXL17, Q9UF56, sequence (Q9UF56 whole entry): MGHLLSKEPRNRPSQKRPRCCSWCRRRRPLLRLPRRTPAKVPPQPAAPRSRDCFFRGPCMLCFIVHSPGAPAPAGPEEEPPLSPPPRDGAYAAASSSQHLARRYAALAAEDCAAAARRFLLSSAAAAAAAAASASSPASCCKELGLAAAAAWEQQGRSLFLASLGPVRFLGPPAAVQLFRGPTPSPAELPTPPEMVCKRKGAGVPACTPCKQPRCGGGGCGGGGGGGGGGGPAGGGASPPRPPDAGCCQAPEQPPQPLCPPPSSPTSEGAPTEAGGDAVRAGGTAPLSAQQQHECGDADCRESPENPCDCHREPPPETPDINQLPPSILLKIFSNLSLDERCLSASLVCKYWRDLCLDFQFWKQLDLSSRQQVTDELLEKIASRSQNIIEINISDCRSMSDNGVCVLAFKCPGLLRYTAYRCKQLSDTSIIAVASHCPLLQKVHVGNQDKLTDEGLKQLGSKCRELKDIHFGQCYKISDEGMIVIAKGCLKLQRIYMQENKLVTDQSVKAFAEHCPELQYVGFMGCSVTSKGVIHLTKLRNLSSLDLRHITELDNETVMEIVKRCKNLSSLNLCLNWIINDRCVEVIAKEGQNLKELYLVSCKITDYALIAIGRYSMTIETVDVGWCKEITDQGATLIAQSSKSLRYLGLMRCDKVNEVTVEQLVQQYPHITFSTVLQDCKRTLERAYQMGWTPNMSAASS
For Y52C, the “effect of a mutation on the interaction” value is “disrupting interaction strength”.

The values are drawn from IntAct's records for PubMed 35869491.
